One molecule from patent publication US5591427A, “Human Interleukin-3(Il-3) variants and their use to promote or antagonize IL-3-mediated processes” (Medvet Science Pty. Ltd., priority 1979, dated 1997) can be followed below.

The assay has as its system basophils. The experiment in a line: Histamine release assay with basophils. The class given is cell-based, human. The conditions noted are these: FIG. 4. On the procedure: This was carried out as previously described (Lopez et. al., 1990, J. Cell. Physiol., 145, 69-77). Briefly, basophils were obtained from the peripheral blood of normal individuals after dextran sedimentation and centrifugation over Lymphoprep. The percentage of basophils in these preparations varied between 0.2% and 10%. In 300 μl 2×10^4 cells were incubated with 2 μg/ml of purified human IgE. IgE-sensitisedcells were mixed with a goat IgG antihuman IgE (Cappel 0101-0061) and rhIL-3, in a final volume of 500 μl. After incubation for 60 min at 37° C., the cells were centrifuged and 350 μl aliquots removed and stored at -20° C. before assaying for histamine content. Histamine was assayed using a radioertzymatic method essentially as described (Shaff and Beavan, 1979, Anal. Biochem., 94, 425-430). Briefly, samples of 30 μl were diluted with an equal volume of water and mixed with a 30 μl solution comprising 27.5 μl 0.1 M sodium phosphate, pH 7.9, 1.5 μl rat kidney histamine-N-methyltransferase, and 1.0 μl (0.5 μCi)^3 H-methyl-S-adensoyl-L-methionine (Dupont Net 155, low SA). Tritium-labelled methyl-histamine was extracted into chloroform/ether, dried, and counted by scintillation spectrophotometry. […] as nanograms of histamine per milliliter by extrapolation to a standard curve constructed with 10, 5 and 1 ng/ml of histamine (SIGMA).

B1: M37: human IL-3 mutant, Asp 101 replaced by Ala and Lys 116 by Val (protein, UniProt P08700 20-152, looked up, variant D101A K116V)
Interleukin-3: APMTQTTPLKTSWVNCSNMIDEIITHLKQPPLPLLDFNNLNGEDQDILMENNLRRPNLEAFNRAVKSLQNASAIESILKNLLPCLPLATAAPTRHPIHIKAGDWNEFRRKLTFYLVTLENAQAQQTTLSLAIF
Regarding B1, the “histamine release from basophils” value is “increased histamine release”.
